Measured values: the supplement of paper PMC9732359
± gives the uncertainty stated by the source.

assay: protein stability index of a GFP-peptide fusion (yeast GPS) (PSI 1-4); higher = more stable; sorted into four equal gates, so the index is relative within each strain; conditions: pdr5∆
Outline: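 The protein stability index of a peptide was calculated by multiplying its read frequency in each gate by that gate's number and adding the products. The peptides were tiled 17-residue stretches of yeast proteins, fused downstream of GFP on a Cherry-expressing plasmid and carried in yeast as a pooled library. Mid-log cultures in leucine-free medium were sorted into four equal gates by GFP/Cherry ratio, and each gate's plasmids were PCR-amplified and Illumina-sequenced.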

Row | Sequence | protein stability index
1 | SYEKNEDHVEDHRKRKK [LIN1] | 3.36 ± 0.1
2 | SYFLKLLGNCYSLRLIN [SRB8] | 2.75 ± 0.06
3 | SYFYRRIHVNPSYYGVR [BRR2] | 1.85 ± 0.057
4 | SYKDSGLWGFSTATRNV [COR1] | 3.11 ± 0.094
5 | SYKRIYGEYPPTKLLVS [PRE8] | 3.03 ± 0.085
6 | SYQKLLKNYVLNELHPT [PRP8] | 1.57 ± 0.034
7 | SYRGVDLEKLLEMSTED [RPS15] | 2.86 ± 0.12
8 | SYTDAQDKSKKIMNVTT [YMR129W/POM152] | 2.66 ± 0.11
9 | SYYDNDLDETTQTFNGS [YML031W/NDC1] | 2.78 ± 0.033
10 | SYYELETIIFDSELNRA [RRI1] | 3.13 ± 0.075
11 | TAASEARKHKLKTLVQG [RPS27A] | 2.75 ± 0.22
12 | TAEAPTLSFNFSQKANK [YOR098C/NUP1] | 3.27 ± 0.086
13 | TAEDSWAVISAFFREKG [RPB2] | 3.02 ± 0.073
14 | TAFNKTRGPFHFRAPSR [RPL16B] | 3.14 ± 0.068
15 | TAGAAANALGGLGVNRR [SSN3] | 3.04 ± 0.11
16 | TAIGIATKEGVVLGVEK [PUP2] | 3.31 ± 0.11
17 | TAILQRQLQYETLGDIL [ECM29] | 3.31 ± 0.12
18 | TANATAELNLPTVDEQR [SNF11] | 3.14 ± 0.032
19 | TANATANVNASAMPAPY [DSN1] | 3.17 ± 0.037
20 | TAPSSQRRVLLSAPLSK [RPL26A] | 2.31 ± 0.053
21 | TASFIPLDTIETELPTL [SMC1] | 2.65 ± 0.078
22 | TASKIIVIDVDYNKKQD [MED1] | 2.58 ± 0.081
23 | TASSEASAGSKEGASTN [YMR153W/NUP53] | 3.23 ± 0.14
24 | TASVEKAEFSKEMTLQK [YIL149C/MLP2] | 3.44 ± 0.14
25 | TATNSKGEQIAIFPYQD [ECM29] | 2.98 ± 0.12
26 | TAVKQGVTSLGIKATNG [PRE8] | 2.06 ± 0.055
27 | TAVSFVSAAEDESLIRE [PRP28] | 3.27 ± 0.15

Row | Sequence | protein stability index
28 | TCAGGRLFNVVVQDSQT [SMC2] | 3.18 ± 0.11
29 | TCDEIQNFENDFSLRYI [REC8] | 2.12 ± 0.28
30 | TDAMTESQPKQTGTRRN [MCD1] | 3.35 ± 0.12
31 | TDDADDHINWEHIKQDY [NSL1] | 3.4 ± 0.12
32 | TDGVIGSRTTTNHVLEV [RPO31] | 3.62 ± 0.094
33 | TDKPFSSTQDVILRKIS [CSI1] | 3.31 ± 0.13
34 | TDLIREKTMMTFGKPEE [YCS4] | 3.31 ± 0.062
35 | TDLPIETAAMASLALAH [RPN1] | 1.66 ± 0.043
36 | TDLSGKETIARVTGGMK [RPS14A] | 3.12 ± 0.082
37 | TDLTNNSTDGAKITEIG [YIL149C/MLP2] | 3.17 ± 0.08
38 | TDRESYPRLQDPSRELN [YCS4] | 3.19 ± 0.043
39 | TDRITRLFIKPGQKMSL [BRN1] | 2.9 ± 0.11
40 | TDVEKSDPAAKKTATEP [SRP21] | 3.02 ± 0.085
41 | TEALLLEHDVEYRPFSK [DIS3] | 3.08 ± 0.085
42 | TEDQKVTTNINWRSFNA [SRP68] | 3.16 ± 0.074
43 | TEFEFYLLEELESYLIV [SSN8] | 2.72 ± 0.087
44 | TEKEEAVAKAAEKKVVR [RPL17A] | 3.35 ± 0.082
45 | TEKLSNGFSFTKFNHNK [YOR098C/NUP1] | 3.14 ± 0.064
46 | TELLDYATKLSKFTKIP [MED4] | 2.71 ± 0.23
47 | TELLNIYDSEDPQQVFD [RPN3] | 3.13 ± 0.078
48 | TEVERAKSLLKLQLGQL [COR1] | 1.31 ± 0.048
49 | TFANPNRTFTDPPFRIE [TAF14] | 2.76 ± 0.075
50 | TFDLTPEDAQLLLAANT [RPS0A] | 1.88 ± 0.049
51 | TFIDKERHQKQLNEKLV [YCS4] | 2.6 ± 0.16
52 | TFLKYFGWLLSDNSVSV [IRR1] | 2.4 ± 0.11
53 | TFRRRNPYNTRSNKIKV [RPL34A] | 1.81 ± 0.045
54 | TFTIKEFVSYYYAHSIP [SNU114] | 1.77 ± 0.045

Row | Sequence | protein stability index
55 | TGAYIANRVTDKLTRVH [PRE3] | 1.76 ± 0.059
56 | TGISQKSMSILNSFVND [HTB1] | 2.94 ± 0.074
57 | TGSNDRCIGDSDNVSFE [YMR129W/POM152] | 2.73 ± 0.068
58 | THTEQNNPPKPQKPVPL [SNF2] | 3.34 ± 0.094
59 | THTNLERDEQKRAEKKA [SNF2] | 3.45 ± 0.11
60 | TIANSIILHFANFGEIL [YMR153W/NUP53] | 2.38 ± 0.054
61 | TIDEQSQISPEKQTPNK [RPN1] | 3.57 ± 0.15
62 | TIEKDKMKIQETISKLN [SMC2] | 1.69 ± 0.044
63 | TIERSLIEEEVEQDEGQ [YCS4] | 3.27 ± 0.17
64 | TIKDLVGGKSTVQNEIL [FAS2] | 2.92 ± 0.1
65 | TISKESTPDQRKRVYNI [ESC2] | 3.16 ± 0.24
66 | TITIKSYHLWPSFTDEQ [PRP8] | 2.81 ± 0.061
67 | TIVGVKFNNGVVIAADT [PUP1] | 2.55 ± 0.14
68 | TKAVEFSMGHIRSSSVS [MED4] | 3.38 ± 0.093
69 | TKEMDEVEEDDEDDDQP [SWI3] | 3.49 ± 0.068
70 | TKFNHNKEKSNSPTSFF [YOR098C/NUP1] | 2.85 ± 0.066
71 | TKFSNPAIPPVIDLEKI [BRR2] | 2.75 ± 0.068
72 | TKIDMPIKNRKNDTHYL [BRN1] | 3.05 ± 0.075
73 | TKIKDAEEDSLLSGEDL [YJL039C/NUP192] | 3.45 ± 0.086
74 | TKKKSKFMTNSTAFVPT [ARP9] | 2.79 ± 0.045
75 | TKLDQVWGSETVASSKV [RPL4A] | 3 ± 0.1
76 | TKLGFTFTIKEFVSYYY [SNU114] | 2.02 ± 0.054
77 | TKLIGVLILLHAERDLA [SRP68] | 2.26 ± 0.17
78 | TKPFENVEKYPTFVEFI [SNU114] | 3.02 ± 0.1
79 | TKQIQSVRIDGRKVLQK [SIR4] | 2.48 ± 0.055
80 | TKRQKHFAWLPTHIWNA [POP1] | 1.82 ± 0.036
81 | TKRVEKPQLKFKSPIDN [RRP6] | 3.03 ± 0.061

Row | Sequence | protein stability index
82 | TKVLNMKPSEILSLIEE [SMC2] | 3.3 ± 0.17
83 | TKVNNQLIKVAVHNGGR [RPL9A] | 1.52 ± 0.06
84 | TLDDLVTKWTNQLTESA [YJL041W/NSP1] | 3 ± 0.099
85 | TLILIQNPENLLSEKIL [SIR3] | 2.88 ± 0.07
86 | TLKIHLKKFLQEKMDPN [IRR1] | 3.01 ± 0.08
87 | TLKKNNVAVDIINFGEI [RPN10] | 3.01 ± 0.092
88 | TLLKNLRKKLNFKLCQA [YJR042W/NUP85] | 2.12 ± 0.097
89 | TLLPGLQDEVMNIKPVQ [RPS2] | 1.35 ± 0.13
90 | TLLRLNELLDLTESQTE [RPN5] | 2.18 ± 0.092
91 | TLLWNKNDKLIKIEDFV [SNF5] | 1.74 ± 0.066
92 | TLPEKKQFDSIFNSNKA [SIR4] | 2.77 ± 0.045
93 | TLRCSVVEACGNIVAEL [YCS4] | 2.19 ± 0.093
94 | TLSNGLIASHYGVSFFT [BRR2] | 2.84 ± 0.045
95 | TLSTHSTTTSVNGSTTA [SIN4] | 3.04 ± 0.038
96 | TLVAQNLKQANNVAYGK [SMC4] | 2.92 ± 0.089
97 | TLVGGGAKITPEMIKRS [RRP43] | 3.29 ± 0.29
98 | TMLELLNQLDGFETSKN [RPT6] | 3.13 ± 0.11
99 | TNAGYTIELAGGGYFSA [FAS1] | 2.28 ± 0.088
100 | TNDGIERYSDKYLKKRK [RPC31] | 2.98 ± 0.18
101 | TNENGETDDNIETVMTQ [SRB4] | 2.53 ± 0.076
102 | TNFNEITNTDETITTKR [SWP82] | 3.25 ± 0.061
103 | TNIRRIIQDNISPRLVV [RRP46] | 1.69 ± 0.041
104 | TNLYKLKEERAIEPETF [PUP3] | 2.97 ± 0.13
105 | TNPKLKSEFDDLSLNIH [YMR129W/POM152] | 3.14 ± 0.056
